Experiment: soluble on expression in E. coli; label from the status in PepcDB or PDB records

Sequence | soluble on expression in E. coli
GSHMTETVPLILLVPKSRREDLEKAQLAERLRSQFFIDYGVRLPEVLLRDGEGLDDNSIVLLINEIRVEQFTVYFDLMRVVNYSDEVVSFGINPTIHQQGSSQYFWVTHEEGEKLRELGYVLRNALDELYHCLAVTLARNVNEYFGIQETKHMLDQLEAKFPDLLKEVLRHATVQRISEVLQRLLSERVSVRNMKLIMEALALWAPREKDVINLVEHIRGAMARYICHKFANGGELRAVMVSAEVEDVIRKGIRQTSGSTFLSLDPEASANLMDLITLKLDDLLIAHKDLVLLTSVDVRRFIKKMIEGRFPDLEVLSFGEIADSKSVNVIKTI | soluble
MGSDKIHHHHHHMANMKNSNDRIILFRKAGEKVDATKMLFLTEYGLSHEADTDTEDTMDGSYNTGGSVESTMSGTAKMFYGDDFADEIEDAVVDRVLYEAWEVESRIPGKNGDATKFKAKYFQGFHNKFELKAEANGIDEYEYEYGVNGRFQRGFATLPEAVTKKLKATGYRFHDTTKADALTGEDLTAIPQPKVDSSTVTPGEV | not soluble
MNKIYIKNMVCDRCIMVVTNILSQLELKVAHIALGEIVLLCPPTEKQMQELLDQLQKVGFEIIDDKRSRIVEQIKTCIRELVHRKNGMLKTNLSDYLCENIHLDYSYLSGLFSENEGRTIEKYFIYQKIERVKELLVYDDMQLSEIAYIMNYSSVAHLSNQFKKVTGFTPTYFKQMSTQCRKPLDKL | not soluble
MNMSSEMLPASIESPNVEEKLGTSDGEEERQEPRVDAGAEPISKRQLKKLMKQKQWEEQREQRKEKRKEKRKRKKLERRQLESNSDGNDRKRVRRDVARSSLRLVIDCSFDDLMVLKDIKKLHKQIQRCYAENRRASHPVQFYLTSHGGQLKKNMDENDQGWVNWKDIHIKSEHYSELIKKEDLVYLTSDSPNVLKDLDESKAYVIGGLVDHSHHKGLTFKQATSYGIEHAQLPLADFVKMNSRKVLAVNHVFEIILEFLETRDWQEAFFTILPQRKGAVPAHKACESSPQDHQSLPEGWDSASEGESCRDNPDSPQKDEQGQQSSPVLQ | soluble
STMPLAELGARLYREKACFSCHSIDGSRLVGPSFKGLYGSTRTFEDGTTAVADENYLRESILQPGAKVVQGYPNVMPASYASLSEREVAALIEFIKQQQ | soluble
MAKKTKQRRPMGFPPGPPGLPFIGNIYSLAASSELPHVYMRKQSQVYGEIFSLDLGGISTVVLNGYDVVKECLVHQSEIFADRPCLPLFMKMTKMGGLLNSRYGRGWVDHRRLAVNSFRYFGYGQKSFESKILEETKFFNDAIETYKGRPFDFKQLITNAVSNITNLIIFGERFTYEDTDFQHMIELFSENVELAASASVFLYNAFPWIGILPFGKHQQLFRNAAVVYDFLSRLIEKASVNRKPQLPQHFVDAYLDEMDQGKNDPSSTFSKENLIFSVGELIIAGTETTTNVLRWAILFMALYPNIQGQVQKEIDLIMGPNGKPSWDDKCKMPYTEAVLHEVLRFCNIVPLGIFHATSEDAVVRGYSIPKGTTVITNLYSVHFDEKYWRDPEVFHPERFLDSSGYFAKKEALVPFSLGRRHCLGEHLARMEMFLFFTALLQRFHLHFPHELVPDLKPRLGMTLQPQPYLICAERRHHHHHH | soluble
MYNDRHLSLFHLLFRAKIQRAINYFFMITFSEIQLLRGGKPLLEQASATIHPGDKVGLVGKNGCGKSTLFALLKDELTIDAGSFSKPAHWELAWVAQETPALDRTALEYVIDGDREYRELERQLMDAEAADNGTKVADLHGKIEMVGGYSIRARASELLDGLGFTQEQMSWSLTQFSGGWRMRLNLAQALICRSDLLLLDEPTNHLDLDAVMWLERWLQSYPGTLILISHDRDFLDPIVNRIVHIENQTLNEYTGNYSSFETQRAQKMLQQQAIYQKQQKQMAHMQSYIDRFRYKASKARQAQSRIKALERMEKVLPAQFDNPFSFEFREPAALPNPILMMDQVAAGYGDHLILEKIRLNLVPGSRIGLLGRNGAGKSTLIKLLSGELKPQSGDCTYSQGVKIGYFAQHQLETLHPEETPLQHMMQIAPDKNELELRNYLGSFGFHGEKALEKVAPFSGGEKARLVLALIVWQKPNLLLLDEPTNHLDLDMRQALTLALQSYEGAMVIVSHDRYLLRATTDDLYLVHDHQVGPFDGDLNDYYKWLTDQQKAERKETQPTNTANSANSAAAKKEQKRREADFRKLTAPIRKKLTQLEEKLDKLNHVVSEMEAQLSDTSLYEAQNKATLTEVLAKQAAAKSELEQVELEWMAEQETLEEMERKFNG | not soluble
MNSPANITDPLVLFMPSGKRGRFPVGTPVLDAARQLGVYVESVCGGRATCGRCQIEVQEGNFAKHKIVSSNDHISPKGPKEERYERVRGLPERRRLSCSAQILGDLVIDVPQDTVINAQTIRKDLEHHHHHH | not soluble
MGSDKIHHHHHHMRILYINHYAGSPRHGMEFRPYYLAREWVKAGHEVNMLAADVSHLRQTHPQVDGKYRDEDIDGIRYTWCKTRPYSGNGVGRVLNIFSFLAKVMGLSRRYLKEWQPDVVIASSTYPLDTVPAAWIAGKTGARLVYEVHDLWPLTPVEVGGMSPKHPFIRLLQWAEDFGYKRADTVVSMLPCARDYMMAHGMAAEKYAVIPNGVDVSEWQGETLPLSAEHRMRLAELKSHGRFIVGYAGGHGLANALDYLLEAAALMRDAPVTFVLVGDGPDKQALVSRAAELKLDNVMFLPSIAKRSVPAFLAECDALYIGWRKLPIYRFGINPNKLFDYMMAGKPVIHSVEAGNDMVKDAGAGLSIGVEDPAVIADAVKRMAVLPLAERETMGAAGKAYVLANHDYAVLARRFLAAVKL | not soluble
MAKRVFIGATGQNCGKTTMSVSLMHLARQKYDRVGFIKPIGPKIEGYNGLTVDMDAILMARTFGLEEDLPLMNPVSLHKNFTRDFLSGKLDCNVLKTKILEAFEILDKKYDFLIIEGAGHGGVGSVIGLSNACVAHTLNAPVIIVTDSGIGSSIDAVHLNLALYEKEDADVRMLLVNKLRADKRESILSFLGKGFPGRPLKISGGFNYSPILANPTLSHIGKLLNLPVHGDPDGQSRIIHHIHLGAASAQRVVDALQESTLIVITSSRDELIVTLSSLYHIPAFREKIVGLVIAGHIPASEISQQILDDSNIPYIRVHDSTANVFTTLMEDVAKITAEDQEKLNWIRANAENEIDFEAIDALLLEHHHHHH | not soluble
MKDILIIAGPTAVGKTDISIKIAQKMNGEIISADSMQIYKYMDIGSAKVTKEEMKGIKHHLIDVVDPSEEFSVASFKKMAQNAIDDITSRKKYPIIVGGTGLYINSLICNYDFTGAYKDEAYRESLQAIAKDKGKEYLHEKLKNIDIDSYKKLYPNDLKRVIRALEVYKITGKTISELNSNVDLYDIPYNIHYFILNMDRQKLYERINLRVDIMLRNGLVDEVIKLRDMGYNSNMQSMKGIGYKEILSYLEGCITLEEAVELIKKGSRHYAKRQLTWFRKDERAVWINKDIYKNDDDIVFKILSSIEEILEHHHHHH | not soluble
MNLDAPRVLVLNAAYEVLGLASIKRAVLLVLGGGAEMVSESGLYLNTPSTRIPVPSVVRLKRMVRRRPGRVPLNRRNVLRRDRYTCQYCGQKGGELTVDHVLPKSRGGKSTWDNLVAACRSCNLRKGDRTPEEAGMRLLRPPKPPRVPLFLLDLKEVPPDWRPFVEGLLGLEHHHHHH | not soluble
DPFSNLTELANALKEKYQLKNVTVAFSQTNDYSEISKQISQSAAEYLEEIIHDDDILGVSWGTTMYKIAQKLSPQKAEIKVVQLKGGVSHSDVNTYAAETLALFGAAYDTAPVSLPLPVVLDNPLAKQMVEADRHIKNIIELGKKANIAIFTVGTVREEALLFRLGYFSDEEKIRLKEKAVGDICSRFFTINGEIADEKMNERTIGIDLQDLKQKETAILVAGGERKIKAIHGALRGGYANHFITDQYTAKQLLEQNFS | not soluble
MSLAPNPYLTGRTLNIAHQGGEALWPSNTLTAYRGAVALGVDLLEMDLHATRDGALVLSHDATLDRLTDTQGRIADLTLEQVLRADAGYTLTPAGGSGFPFRGQGVQVAQLKDVLREFPNTPLIIELKQASPSIAAPFCAELRRAGATGRVIAASFSDAALNEFRRLCPEVMTSMTERELRPLVLLSKVGLSALAPTPGQVAQVPVRSGGIEIVTPAFVRALHARGVAVQVWTIDDEAEMRRLVQMGVDGVITNRPDLLKKVLAEREGHHHHHH | not soluble
MSAPWETLLDWWFGTSSDAAEVVAQRNGLWFGKNVCQDADAGGRFGDLVNQALDGGLQEWTAEADGWLALILLLDQLPRMIYRDTPRAYAGDARAQRVVREGLEKGFDRQLPPVRRVFAYLVLEHAEDLPSQERAVACFRDLRDQVGGSVRKPFDDFYDYAERHHAVVARFGRFPHRNAILGRPSSEEETAFLREPGSRF | not soluble
MSLPNRLLITNASIAKMDEPDDGYGLMMHAALLIQDEKIEWLGSVSDIPAGLGDPEELDACGRLLTPALIDCHTHIVHGGNRAREFEMRLEGASYEEIARAGGGIISTVTATRETDEAALLQDALKRADSLIAEGVSLIEIKSGYGLDVETELKMLRVARAIERERSVRVVTSFLGAHAVPKGADADFYIDKVCIPALEAAHKEGLVDAVDGFCEGIAFDTVQMGRLFERARQLDIPVKLHAEQLSNIGGTKLAASYNALSVDHVEYADKTDIAAMAKAGSVAVLLPGAFYTLHETQKPLVEAFRSESVPMAVATDWNPGSSPMGSLLLAMNMSCTLFGLTPVEALAGTTRNAARALGLKDCGIVAPGKRADLAIWDVLEPAELSYRFGVNPLHRRIFGGRLEGHHHHHH | soluble
MKYFMGPHVWQRTIADLEALGHQRVDTFEQAEAYINTEPRPLRIPTIPESVGFVQHCFTGVNQLIDAHVITETGVRWANMAGGFAQPVAESALGLMLSQAHHHKAFALAGTWRVARELDRIQQWLHSVGEPRCVVIFGAGGIAKELIRLLEPFGMHVIAVNRSGRSVAGADETFAMKDAQGLWSRGDFIVNILPLTQETKGLVDRDVFAQMKPSAIFINVGRGATVVTDDLVDALQRGVIAGAGLEVVDPEPLPDSHALHSMPNCTITPHMAASDHVAELHVARIFDANAQAFTRGETMPTEVNPHLGY | not soluble
MAHHHHHHMTTVLNRRFDVLCHSGTCPSYLIDVLSLLVAHANDTELFKTELRKGDGGEFGAAATGAGSAHATSSTGPASRTDRAVGEARERQAADRRTQLMYKQVEDPEVLDDALRASHETVLIAAERSLQTYTEDLKHINDIAMATSAKQLRAMRVETQQQMEAFRDRVCGSVVAQTKEELEVMRSELAASVRADVSDMVRQLHQVSFSTQQQLQQLTSSYTDFVAQAHDALTLAPLADAYEAVKTVEYMQEQLKCIEAAATTRSDVETLEERLKDLESIVTTLGSVAKTPDVGAAAAAREGFSVNVPPPLSLSQQKPVLSNRSASHRSQTPKCTSPLPLHLHVSRSASAKGRPSSPPPASPGPPAQRTLAERLGVAVEAAEDGVVLAEVLPGSAAAAHRLGVGHIISHVGRTAVKTPAAFEEALRGIEGQAVKITAYDPFNGRVRVLTAQPL | not soluble
MRSGDAEIKGIKPKVIEEYSLSQGSGPSNDSWKSLMSSAKDTPLQYDHMNRESLKKYFNPNAQLIEDPLDKPIQYRVCEKCGKPLALTAIVDHLENHCAGASGK | soluble
MAKKKTKFTCQECGYQSPKYMGKCPGCGQWNSLVEEMEPVVSSRRLNYANAIQTEVTKPRRLTEVETKSEARIETKFQEFNRVLGGGIVDGSLVLIGGDPGIGKSTLLLQISSQLADASYDVLYISGEESAKQIKLRADRLHVNGSNLFVVSETDLQRIAAHIEEMNPAFVVIDSIQTIHLPEVTSAPGSVAQVRECTAELMKLAKTKGIPIFIVGHVTKEGAIAGPRMLEHMVDAVLYFEGDRHHTYRILRAVKNRFGSTNEMGIFEMKELGLAEVLNPSEIFLEERPVGVAGSTVVASMEGTRPVLVEIQALISPTSFGNPRRMATGIDHNRVSLIMAVLEKRTGLLLQNQDAYLKVAGGLKLDEPAIDLAVALSIASSFRDKSTAPTDAVIGEVGLTGEIRRVSRIEQRVQEAAKLGFQRAIIPRKNLGGWTIPEGIEVVGVSNLGEALRLTLGG | not soluble

From the DeepSol protein solubility set
